Biological target: AtGAPC1 C149S mutant (Arabidopsis thaliana)
Test: dynamic light scattering

With AtGAPC1 C149S mutant (enzyme) the stoichiometry N was 4.

From article doi:10.1101/545921
